Assay results reported in patent US20260274955A1 (JANUX THERAPEUTICS, published 2026).

What follows are binders tested against T1, Anti-CD28 Fab (SEQ ID NOs: 202, 203) (assay: phage binding ELISA, Fab on plate;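 further: clonal phage supernatant ELISA, wells preincubated with CD28 antigen or blocking buffer only, then bound phage detected using HRP-linked anti-M13 antibody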).
T1 construct: biotinylated and captured on neutravidin coated plates in the phage ELISA
T1 sequence (VH, as listed by the source, chain 1 of 2): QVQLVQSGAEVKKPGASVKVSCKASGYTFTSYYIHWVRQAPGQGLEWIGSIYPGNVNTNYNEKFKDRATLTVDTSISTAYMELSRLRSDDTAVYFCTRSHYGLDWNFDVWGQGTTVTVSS
T1 sequence (VL, as listed by the source, chain 2 of 2): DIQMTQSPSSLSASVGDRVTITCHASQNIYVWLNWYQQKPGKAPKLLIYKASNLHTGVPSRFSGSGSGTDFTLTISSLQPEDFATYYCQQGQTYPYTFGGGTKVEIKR
Protocol: (§1) After panning, phage infected bacteria were plated out and colonies picked into 96 well blocks. Clonal phage was then amplified and separated from bacterial cells via centrifugation.
(§2) Clonal phage were harvested as crude supernatants and screened via standard ELISAs. […] Prior to the addition of clonal phage, wells were incubated with blocking buffer and CD28 antigen or blocking buffer alone. Without washing or aspirating, clonal phage supernatants were then added to the wells and incubated for a short time. Wells were then washed followed by detection of bound phage using a horse radish conjugated anti-M13 antibody. Clonal phage of interest were then sent for sequence analysis.

| Binder | Anti-CD28 Fab (SEQ ID NOs: 202, 203) signal |
| --- | --- |
| TCEAVFIYSWPFCL [Phage-1096] | 1.52 |
| LCAEGADYPWPMCL [Phage-1098] | 1.51 |
| TCAAGATWDWPLCF [Phage-1099] | 1.51 |

The binders below were run against T2, anti-CD28 Fab (SEQ ID NOs: 202, 203) (assay: phage binding ELISA on captured biotinylated Fab;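 further: clonal phage supernatants added to wells preincubated with CD28 antigen or blocking buffer only, bound phage detected by ELISA with horseradish-conjugated anti-M13 antibody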).
T2 construct: biotinylated and captured on neutravidin coated plates in the phage ELISA
T2 sequence (VH, as listed by the source, chain 1 of 2): as the sequence (VH, as listed by the source, chain 1 of 2) above
T2 sequence (VL, as listed by the source, chain 2 of 2): as the sequence (VL, as listed by the source, chain 2 of 2) above
Protocol: as §1, §2

| Binder | Anti-CD28 Fab (SEQ ID NOs: 202, 203) signal |
| --- | --- |
| SCAAGASYAWPYCL [Phage-18] | 1.49 |
| YWSCFQIPFTCFYF [Phage-1] | 1.44 |
| WECLKYTEANACTY [Phage-2] | 1.55 |
| FMCLPQNPHPLCFK [Phage-3] | 0.84 |
| PDCQTILFKPWCVR [Phage-4] | 2.09 |
| PDCHTILFKPWCVR [Phage-16] | 1 |
| ACDTYFAGMINECF [Phage-5] | 0.92 |
| GCQYPWAFDAMSCP [Phage-6] | 2.38 |
| WCWDYKLWVPTQCP [Phage-7] | 2.27 |
| WCWDYREWVPMTCP [Phage-8] | 2.3 |
| WCWYYREWVPMTCP [Phage-14] | 1.85 |
| ECHWSMWAVGHACF [Phage-9] | 1.77 |
| YCAGHSPINIGKCL [Phage-10] | 1.49 |
| WCWDYKLWVPMTCP [Phage-11] | 2.51 |
| DCWWMFESYPGRCI [Phage-12] | 1.65 |
| YCAGHAWQYINKCL [Phage-13] | 0.64 |
| YWYCSPSIVRCVLV [Phage-15] | 1.51 |
| WICDKSGSIMLCRA [Phage-17] | 0.91 |
| DCPWLSGFSRPLLC [Phage-19] | 1.27 |
| YCAGMSTIQLWLKC [Phage-20] | 2.16 |
| YCAGHMPQYEVKCL [Phage-21] | 0.22 |

| Binder | Anti-CD28 Fab (SEQ ID NOs: 202, 203) signal |
| --- | --- |
| YCAGHTEEHYVKCM [Phage-22] | 0.62 |
| YCMGHSHEHIWKCL [Phage-23] | 0.87 |
| YCAGHSHEYLAKCE [Phage-24] | 0.86 |
| LCAAGASWPWPVCL [Phage-888] | 2.16 |
| TCAAGAAWPWPQCL [Phage-890] | 2.23 |
| TCSAGATYTWPKCF [Phage-891] | 1.87 |
| TCSEGATYTWPWCF [Phage-954] | 2.05 |
| TCAAGATWSWPACF [Phage-892] | 2.23 |
| TCAAGAAWGWPLCF [Phage-893] | 2.3 |
| LCAAGATYPWPLCL [Phage-894] | 2.39 |
| LCAAGATYPWPTCL [Phage-897] | 1.71 |
| MCAAGATYPWPACL [Phage-914] | 2.3 |
| LCAAGATYPWPFCL [Phage-919] | 2.28 |
| LCAAGATYAWPLCL [Phage-945] | 2.13 |
| YCAAGATYPWPLCL [Phage-952] | 2.08 |
| LCAAGFKYPWPLCL [Phage-964] | 2.02 |
| LCAAGASYPWPTCL [Phage-967] | 2 |
| MCAAGATYPWPLCL [Phage-970] | 1.99 |
| TCSAGAAYPWPLCL [Phage-895] | 2.36 |
| TCSAGAAYSWPACF [Phage-896] | 1.89 |
| SCSAGAHYPWPQCF [Phage-898] | 1.16 |

| Binder | Anti-CD28 Fab (SEQ ID NOs: 202, 203) signal |
| --- | --- |
| TCSAGATYEWPRCL [Phage-899] | 1.84 |
| TCSAGAHYPWPICL [Phage-900] | 1.78 |
| SCSAGAAYYWPWCL [Phage-901] | 1.9 |
| TCSAGATWAWPLCF [Phage-902] | 2.31 |
| TCAAGATYLWPTCL [Phage-903] | 1.68 |
| TCAAGAHYPWPACL [Phage-904] | 1.92 |
| HCAAGAHYPWPACL [Phage-968] | 2 |
| LCSAGAMYPWPTCL [Phage-922] | 2.25 |
| LCSAGAMWPWPTCL [Phage-908] | 2.39 |
| LCSAGAMYSWPTCL [Phage-909] | 2.39 |
| MCSAGAMYPWPTCL [Phage-959] | 2.04 |
| TCAAGAMWAWPVCL [Phage-911] | 2.32 |
| TCAAGAMWHWPVCL [Phage-962] | 2.03 |
| MCSAGAMYKWPLCL [Phage-912] | 2.32 |
| MCSAGAMYSWPLCL [Phage-918] | 2.29 |
| TCSAGATYAWPFCL [Phage-913] | 2.31 |
| SCAAGAMWPWPVCV [Phage-915] | 2.29 |
| SCKPGVANYWPWCL [Phage-917] | 2.29 |
| MCAAGANYPWPQCL [Phage-920] | 2.28 |
| TCSAGATWSWPMCL [Phage-921] | 2.26 |
| TCAAGAHYSWPACF [Phage-923] | 2.25 |
